Source: paper PMC6380423 (mAbs, 2019)
Blank lines part the entries; values can stand above or below the molecule they belong to.

Experiments:
[1] = biological target: B cell receptor (BCR) (human (endogenous in Ramos)); assay: FRET or BRET
FRET or BRET = biological target: the molecule itself; assay: FRET or BRET

normalized FCET at 30 min of BCR stimulation [1]: 2.6 units
normalized FCET at 30 min of BCR stimulation, with the CD47xCD19 biAb [1]: 1.5 units
normalized FCET at 1 hour of BCR stimulation [1]: 3.6 units
normalized FCET at 1 hour of BCR stimulation, with the CD47xCD19 biAb [1]: 1.9 units
Molecule: CD19 (from UniProt P15391 20-556) (receptor)

B1: CD19 (receptor)
chain: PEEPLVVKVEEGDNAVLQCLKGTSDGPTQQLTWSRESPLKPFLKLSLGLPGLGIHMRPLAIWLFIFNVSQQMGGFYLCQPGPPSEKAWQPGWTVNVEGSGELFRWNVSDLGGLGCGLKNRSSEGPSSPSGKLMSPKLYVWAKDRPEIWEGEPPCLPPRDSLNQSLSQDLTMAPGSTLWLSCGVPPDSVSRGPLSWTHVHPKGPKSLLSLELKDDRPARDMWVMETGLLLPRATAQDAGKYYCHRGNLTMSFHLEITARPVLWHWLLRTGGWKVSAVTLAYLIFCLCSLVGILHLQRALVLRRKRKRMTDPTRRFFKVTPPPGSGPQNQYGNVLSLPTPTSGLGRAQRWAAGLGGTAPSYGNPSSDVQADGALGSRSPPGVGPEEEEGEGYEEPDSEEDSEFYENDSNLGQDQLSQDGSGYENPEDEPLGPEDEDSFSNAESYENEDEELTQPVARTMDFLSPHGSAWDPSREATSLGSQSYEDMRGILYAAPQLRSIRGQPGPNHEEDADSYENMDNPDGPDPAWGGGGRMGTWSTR
normalized FCET (fold over baseline), with the bivalent anti-CD19 mAb (FRET or BRET): 8.2 fold

B2: CD20 (receptor)
chain: MTTPRNSVNGTFPAEPMKGPIAMQSGPKPLFRRMSSLVGPTQSFFMRESKTLGAVQIMNGLFHIALGGLLMIPAGIYAPICVTVWYPLWGGIMYIISGSLLAATEKNSRKCLVKGKMIMNSLSLFAAISGMILSIMDILNIKISHFLKMESLNFIRAHTPYINIYNCEPANPSEKNSPSTQYCYSIQSLFLGILSVMLIFAFFQELVIAGIVENEWKRTCSRPKSNIVLLSAEEKKEQTIEIKEEVVGLTETSSQPKNEEDIEIIPIQEEEEEETETNFPEPPQDQESSPIENDSSP
normalized FCET (fold over baseline), with the anti-CD20 mAb rituximab (FRET or BRET): 6.7 fold
